Biological target: hCD40ADD (human CD40 with its TRAF binding site PVQETLH changed to PVQATDD) (human) (UniProt P25942)
Experiment: co-IP

B1: TNF receptor-associated factor 2 (natural protein)
chain: MAAASVTSPGSLELLQPGFSKTLLGTRLEAKYLCSACKNILRRPFQAQCGHRYCSFCLTSILSSGPQNCAACVYEGLYEEGISILESSSAFPDNAARREVESLPAVCPNDGCTWKGTLKEYESCHEGLCPFLLTECPACKGLVRLSEKEHHTEQECPKRSLSCQHCRAPCSHVDLEVHYEVCPKFPLTCDGCGKKKIPRETFQDHVRACSKCRVLCRFHTVGCSEMVETENLQDHELQRLREHLALLLSSFLEAQASPGTLNQVGPELLQRCQILEQKIATFENIVCVLNREVERVAVTAEACSRQHRLDQDKIEALSNKVQQLERSIGLKDLAMADLEQKVSELEVSTYDGVFIWKISDFTRKRQEAVAGRTPAIFSPAFYTSRYGYKMCLRVYLNGDGTGRGTHLSLFFVVMKGPNDALLQWPFNQKVTLMLLDHNNREHVIDAFRPDVTSSSFQRPVSDMNIASGCPLFCPVSKMEAKNSYVRDDAIFIKAIVDLTGL
fold reduction of co-immunoprecipitated TRAF2 against hCD40: 2 fold
